Substitutions are numbered along the chain they refer to.

The EC50 is the concentration that produces a half-maximal response.

Assay [1] addresses T1, monkey CDH6 protein (cynoCDH6 ECD-his) (monkey (cyno), UniProt A0A2K5TW62 19-615).
T1 construct: range 19-615; also called Cyno CDH6-his; not shown: his tag
T1 sequence: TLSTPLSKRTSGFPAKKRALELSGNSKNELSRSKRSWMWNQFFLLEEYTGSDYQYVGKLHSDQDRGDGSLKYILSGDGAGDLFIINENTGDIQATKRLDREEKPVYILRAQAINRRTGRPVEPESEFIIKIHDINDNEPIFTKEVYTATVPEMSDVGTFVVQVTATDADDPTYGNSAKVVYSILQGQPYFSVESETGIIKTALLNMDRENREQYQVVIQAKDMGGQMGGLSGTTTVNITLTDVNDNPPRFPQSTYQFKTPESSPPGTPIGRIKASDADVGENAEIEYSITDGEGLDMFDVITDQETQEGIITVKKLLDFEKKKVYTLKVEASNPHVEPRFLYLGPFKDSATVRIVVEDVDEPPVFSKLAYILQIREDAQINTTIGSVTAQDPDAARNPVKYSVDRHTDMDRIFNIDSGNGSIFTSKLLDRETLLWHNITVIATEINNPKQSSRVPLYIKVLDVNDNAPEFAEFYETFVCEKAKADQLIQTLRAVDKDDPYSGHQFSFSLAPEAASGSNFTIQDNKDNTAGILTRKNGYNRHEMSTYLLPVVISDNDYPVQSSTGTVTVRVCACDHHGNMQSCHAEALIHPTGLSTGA
Nature of the assay: ELISA, coated antigen. Here is the method:
Human CDH6 protein (hCDH6 ECD-his, conventionally synthesized), monkey CDH6 protein (cynoCDH6 ECD-his, conventionally synthesized; the cynoCDH6 ECD sequence was derived from Uniprot #A0A2K5TW62 (19-615)), and murine CDH6 protein (mCDH6 ECD-his, conventionally synthesized; the mCDH6 ECD sequence was derived from Uniprot #P97326 (19-615)) were diluted with PBS to a final concentration of 1 μg/mL, and added to a 96-well ELISA plate at 100 μL/well. The plate was incubated at 4° C. overnight. The next day, the plate was washed 3 times with a plate washing solution (PBS+0.01% (v/v) Tween 20), and a blocking buffer (PBS+0.01% (v/v) Tween 20+2% (w/w) BSA) was added for blocking at room temperature for 2 h. The blocking buffer was discarded, and the plate was washed 3 times. The chimeric antibodies were diluted with 1% BSA+PBS (purchased from Cytiva, Cat. No. SH30264.01) and added to the 96-well plate at 50 μL/well. After incubation at 37° C. for 2 h, the plate was washed 3 times with a plate washing solution. […] The plate was incubated at 37° C. for 1 h and then washed 5 times with a plate washing solution. A TMB substrate (purchased from Seracare, Cat. No. 5120-0077) was added at 50 μL/well and incubated at room temperature for 10 min, then a stop solution (1.0 N HCl) was added at 50 μL/well. OD450 nm values were read using a microplate reader (Biotek). Analysis was performed by the GraphPad Prism software, data were fitted, and EC50 values were calculated. The chimeric antibodies tested all had strong binding to the human CDH6 protein, the monkey CDH6 protein, and the murine CDH6 protein.
(An ELISA detects its analyte on a solid surface through an enzyme-linked reagent.)

Assay [2] has as its target T2, human CDH6 with EC3 removed, on HEK293T cells (HEK293T-hCDH6-EC3 deletion) (human, UniProt P55285 54-790).
T2 construct: Signal peptide not removed here
T2 sequence: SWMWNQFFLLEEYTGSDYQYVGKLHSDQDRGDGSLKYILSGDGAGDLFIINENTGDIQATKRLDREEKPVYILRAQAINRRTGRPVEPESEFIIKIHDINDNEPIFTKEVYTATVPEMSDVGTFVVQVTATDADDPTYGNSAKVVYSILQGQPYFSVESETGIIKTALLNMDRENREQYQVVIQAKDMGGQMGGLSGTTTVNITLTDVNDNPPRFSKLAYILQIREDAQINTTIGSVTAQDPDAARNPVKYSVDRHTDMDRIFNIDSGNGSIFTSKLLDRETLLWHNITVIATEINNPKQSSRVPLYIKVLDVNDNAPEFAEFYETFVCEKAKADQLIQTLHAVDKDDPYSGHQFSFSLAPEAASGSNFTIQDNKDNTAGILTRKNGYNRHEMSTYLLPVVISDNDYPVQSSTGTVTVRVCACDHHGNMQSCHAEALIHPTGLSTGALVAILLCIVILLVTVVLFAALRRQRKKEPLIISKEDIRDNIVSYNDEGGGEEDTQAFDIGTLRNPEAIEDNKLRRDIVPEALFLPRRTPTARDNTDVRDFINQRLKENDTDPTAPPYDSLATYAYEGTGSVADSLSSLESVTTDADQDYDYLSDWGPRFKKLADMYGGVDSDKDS
Nature of the assay: FACS, HEK293T-hCDH6-EC3 deletion cells. The source says:
To confirm the binding epitope of the CDH6 antibody, the sequences after removal of these 5 regions were constructed into pcDNA3.1 vectors (purchased from Youbio, Cat. No. VT1001), and transfected into HEK293T cells (purchased from Cell Bank of Chinese Academy of Sciences, Cat. No. SCSP-502) to obtain 5 CDH6 truncated cell lines: HEK293T-hCDH6-EC1 deletion, HEK293T-hCDH6-EC2 deletion, HEK293T-hCDH6-EC3 deletion, HEK293T-hCDH6-EC4 deletion, and HEK293T-hCDH6-EC5 deletion.
The binding activity of the CDH6 chimeric antibodies to these 5 cell lines was assayed by FACS.

The target of assay [3] is T3, human CDH6 with EC1 removed, on HEK293T cells (HEK293T-hCDH6-EC1 deletion) (human, UniProt P55285 160-790).
T3 construct: Signal peptide not removed here
T3 sequence: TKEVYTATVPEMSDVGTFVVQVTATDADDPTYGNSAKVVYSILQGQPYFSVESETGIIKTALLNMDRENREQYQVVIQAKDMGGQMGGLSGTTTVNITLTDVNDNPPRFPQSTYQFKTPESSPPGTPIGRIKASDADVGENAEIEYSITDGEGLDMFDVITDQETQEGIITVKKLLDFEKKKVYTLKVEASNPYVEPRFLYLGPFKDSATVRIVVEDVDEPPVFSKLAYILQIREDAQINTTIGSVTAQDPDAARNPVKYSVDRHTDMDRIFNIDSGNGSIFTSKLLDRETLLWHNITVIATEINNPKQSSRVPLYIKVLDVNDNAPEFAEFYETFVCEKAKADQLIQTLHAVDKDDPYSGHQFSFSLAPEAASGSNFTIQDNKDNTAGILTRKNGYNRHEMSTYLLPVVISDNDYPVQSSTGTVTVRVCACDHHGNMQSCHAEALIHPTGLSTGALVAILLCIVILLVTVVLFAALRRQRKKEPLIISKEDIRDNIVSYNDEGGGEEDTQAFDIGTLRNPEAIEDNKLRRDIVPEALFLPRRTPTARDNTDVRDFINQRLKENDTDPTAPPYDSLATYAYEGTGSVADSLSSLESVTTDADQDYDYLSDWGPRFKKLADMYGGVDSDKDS
Nature of the assay: FACS, HEK293T-hCDH6-EC1 deletion cells. A general note: A flow cytometer gives signals particle by particle.

B1: CHI-CDH6-1 (antibody, human IgG1, kappa, V domains shown)
VH: QVQLQQPGAELVRPGSSVKLSCKASGYTFTNYWMHWVKQRPIEGLEWIGDIDPSHSETHYTQKFKDKATLTVDKSSSTAYMQLSSLTSEDSAVYYCARGDLGRFDYWGQGTTLTVSS
VL: DIVLTQSPASLAVSLGQRATISCRASESVSIHGTHLMHWYQQKSGQPPKLLIYAASNLESGVPARFSGSGSETDFTFNIHPVEEEDAATYFCQQSFEDPWTFGGGTKLEIKR
notes: also called CHI-hCDH6-1; CH1-CDH6-1
The molecule B1 returned an EC50 in assay [1] of 0.023 nM. The “Max OD450” value in assay [1] turned out to be 2.54 OD450. The “Max MFI” value in assay [2] turned out to be 18000 MFI; in assay [3], 84 MFI.

B2: CHI-CDH6-10 (antibody, human IgG1, kappa, V domains shown)
VH: QVQLQQPGAELVKPGTSVKMSCKASGYTFTSDWIAWVKQRPGQGLEWIGDIYPGSGRTHNNEKFNFKATLTVDTSSNTAYMQLSSLTSEDSAVYFCARPMLGRFDYWGQGTTLTVSS
VL: B1 VL with S44P, F77L, W100F, G104S
notes: also called chimeric antibody of murine CDH6-10
Take B2: in assay [1], the EC50 was found to be 0.026 nM and the “Max OD450” value stood at 2.26 OD450.

B3: CHI-CDH6-3 (antibody, human IgG1, kappa, V domains shown)
VH: QVQLQQPGAELVKPGASVKLSCKASGYTFTSYWIHWVKQRPGQGLEWIGEINPSNGVTNCNENFKSKATLTVDKSSSTAYMQLSSLTSEDSAVYYCTIPNLLWWYFDVWGAGTTVTVSS
VL: DIQMTQSPASLSVSVGETVTITCRASENIYSNLAWYQQKQGKSPQLLVYEATNLADGVPSRFSGSGSGTQYSLKINSLQSEDFGSYYCQHFWGTLWTFGGGTKLEIKR
notes: also called CH1-CDH6-3; chimeric antibody of murine CDH6-3
B3: in assay [1], the EC50 was 0.041 nM and the “Max OD450” value was found to be 2.64 OD450. Also, the “Max MFI” value in assay [2] came out at 689 MFI. Also, in assay [3], the “Max MFI” value is 11100 MFI.

B4: CHI-CDH6-9 (antibody, human IgG1, kappa, V domains shown)
VH: QVQLQQPGAELVKPGASVKLSCKASGYTFTGYWMHWVRQRPGQGLEWIGEINPNNGGTNCNEQFKNKATLTVDKSSSTAYMQLSSLTSEDSAVFYCTISFGNYLFFDVWGAGTTVTVSS
VL: DIQMTQSPASLAASVGETITITCQASENIYFSLAWYQQKQGKSPQLLIYNANTLEDGVPSRFVGSGSGTQYSMKINSIQPEDTATYFCDQTYDFPWTFGGGTKLEIKR
notes: also called chimeric antibody of murine CDH6-9
B4: in assay [1], it took 0.026 nM to reach a half-maximal effect (EC50) and the “Max OD450” value is 2.78 OD450.

B5: CHI-CDH6-4 (antibody, human IgG1, kappa, V domains shown)
VH: QVQLQQSGPELVKPGASVKISCKASGYAFSNFWMNWVKQRPGKGLEWIGWIYPGDGDTNYNGKFKDKATLTADKSSSTAYIQLSSLTSEDSAVYFCARLYDAWGFFDYWGQGTTLTVSS
VL: QIVLTQSPAIMSASPGQKVTITCSASSSVNYMHWYQQKLGSSPKLWIYDKSKLAPGVPARFSGSGSGTSYSLTISSMEAEDAASYFCHQWSSYPPMTFGGGTKLEIKR
notes: also called CH1-CDH6-4; chimeric antibody of murine CDH6-4
Turning to B5, in assay [1], the EC50 worked out at 0.034 nM and the “Max OD450” value came to 2.23 OD450. Moreover, the “Max MFI” value in assay [2] was 15100 MFI. Besides, the “Max MFI” value in assay [3] is 10200 MFI.

B6: CHI-CDH6-11 (antibody, human IgG1, kappa, V domains shown)
VH: QIQLQQSGPELVKPGASVRISCKASGYTFTDYYITWVKLRPGQGLEWIGWIYPGSVNIKYNEKFKGKATLTVDTSSSTAYMQLNSLTSEDSAVYFCARGGYSWFPYWGQGTLVTVSA
VL: NIVMTQSPKSMSMSVGERVTLSCKASENVHTYVSWYQQKPEQSPKLLFYGASTRNTGVPDRFTGSGSATDFTLTISSVQAEDLADYYCGQSYSYPYTFGSGTKLEIKR
notes: also called chimeric antibody of murine CDH6-11
Consider B6, for which, in assay [1], the EC50 was determined as 0.032 nM and the “Max OD450” value was 2.32 OD450.

B7: CHI-CDH6-6 (antibody, human IgG1, kappa, V domains shown)
VH: EVQLQQSGPELVKPGDSVKMSCKASGYTFTDYYMAWVRQSHRKSLEWIGYIFPNSGGTDYSQKFKGKATLTVDKSSSTVYMELHSLTSEDSAVYYCARELGADYGDYYAMDHWGQGTSVSVSS
VL: DIQMTQSPASLSASVGETVTITCRASENIDSYLAWYQQKQGKSPQLLVYSATLLADGVPSRFSGSGSGTQYSLKINSLKSEDVARYYCQHYYRTPPTFGSGTKLEIKR
notes: also called CHI-hCDH6-6; chimeric antibody of murine CDH6-6
Turning to B7, in assay [1], the EC50 turned out to be 0.03 nM and the “Max OD450” value worked out at 2.24 OD450.

B8: CHI-CDH6-8 (antibody, human IgG1, kappa, V domains shown)
VH: EVQLQQSGPELVKPGDSVKMSCKASGYTFTDYYMAWIKQNHGKSLEWIGYIYPNNGGTDYNQKFRGKATLTVDKSSSAAYMELHSLTSEDSAVYYCAREIGTLYGDYYAMDYWGQGTSVTVSS
VL: B7 VL with S50T, K79Q, R93S
notes: also called chimeric antibody of murine CDH6-8
For the molecule B8, in assay [1], the concentration for a half-maximal effect (EC50) was found to be 0.026 nM and the “Max OD450” value is 2.12 OD450.

B9: CHI-CDH6-2 (antibody, human IgG1, kappa, V domains shown)
VH: EVQLQQSGPELVKPGASVRISCKASGYTFTDYYMNWVKQSHGKSLEWIGDIDPNNANTTYNQKFKGKATLTVDKSSSTAYMELRSLTSEDSAVYSCASFGYDVEWFGYWGQGTLVTVSA
VL: QIVLTQSPALMSASPGEKVTMTCSASSSVSYMYWYQQKPRSSPKPWIYLTSNLASGVPARFSGSGSGTSYSLTISSMEAEDAATYYCQQWSSNPFTFGSGTKLEIKR
notes: also called chimeric antibody of murine CDH6-2
Take B9: in assay [1], the midpoint of the response, the EC50, lay at 0.022 nM and the “Max OD450” value was determined as 2.12 OD450.

B10: CHI-CDH6-13 (antibody, human IgG1, kappa, V domains shown)
VH: DVQLQESGPGLVKPSQSLSLTCSVTGYSITKDSYWNWIRQFPGSKLEWMGFISYDGSRHYNPSLKNRISITRDTSKNQFFLQLNSVTTEDTATYYCARRDYADYWGQGTTLTVSS
VL: B9 VL with S14F, S26T, M32I, S75N, M77L, N93I, F95Y, S99G
notes: also called chimeric antibody of murine CDH6-13
Regarding B10, in assay [1], the EC50 stood at 0.017 nM and the “Max OD450” value is 2.72 OD450.

Source of the values: US20260234242A1 (HAINAN SIMCERE ZAIMING PHARMACEUTICAL, published 2026).
